Laboratory results: paper PMC7195491 (2020)
Changes are numbered by the printed parent chain. Names may count otherwise.

T1: DIP-α (Drosophila melanogaster)
T1 chain: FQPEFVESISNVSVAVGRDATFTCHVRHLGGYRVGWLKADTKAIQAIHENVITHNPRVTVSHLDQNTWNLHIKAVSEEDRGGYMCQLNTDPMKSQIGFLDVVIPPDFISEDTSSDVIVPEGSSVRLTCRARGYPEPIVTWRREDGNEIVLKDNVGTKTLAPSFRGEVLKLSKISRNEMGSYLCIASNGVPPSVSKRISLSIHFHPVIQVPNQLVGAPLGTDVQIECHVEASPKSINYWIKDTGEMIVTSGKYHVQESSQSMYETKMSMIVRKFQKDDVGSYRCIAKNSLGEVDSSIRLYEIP

B1: Dpr10 V31K Q29E (domain or fragment)
chain: YQRQSVSNNNHNNAEAKPTHAPPSHYPHGHKWNEPYFDLTMPRNITSLVGKSAYLGCRVKHLGNKTVAWIRHRDLHILTVGTYTYTTDQRFQTSYHRDIDEWTLQIKWAQQRDAGVYECQISTEPKRSYSVNLNIVDLIDAETSDIMQQYYNDDAFYIAENRVYQSSNDEFAGMFGPIQTVAVPTATILGGPDLYVDKGSTINLTCIIKFSPEPPTHIFWYHQDKVLSEETSGGRLKFKTIKSEETKSILLIYDADLLHSGKYSCYPSNTEIASIR
B2: Dpr10 (domain or fragment)
chain: B1 chain with E124Q, K126V
B3: Dpr11 K31V (domain or fragment)
chain: PYLDGYATSNVTTQIGTHAYLPCRVKQLGNKSVSWIRLRDGHILTVDRAVFIADQRFLAIKQPDKYWTLQIKYVQARDAGSYECQVSTEPVVSARVQLQVVVPRTEILGEPDRYVKAGSNVVLRCIVRGALEPPTFIMWYHGAEQLAADSRRHRTQLDPNLPEASGEGQSTIGSLIIESAKKRDTGNYTCSPSNSPSATVT
B4: Dpr11 (domain or fragment)
chain: B3 chain with V91K
B5: Dpr11 K31V,E29Q (domain or fragment)
chain: B3 chain with E89Q
B6: Dpr10 V31K (domain or fragment)
chain: B1 chain with E124Q

Biological target: T1, DIP-α
Assay: SPR

Row | Binder | Kd [µM]
1 | B1 | 29.2
2 | B2 | 1.3
3 | B3 | > 300
4 | B4 | > 500
5 | B5 | > 300
6 | B6 | 11.3
